Measured values published in ChEMBL document CHEMBL1156423.

Test system: O=C(O)P(=O)(O)O
Details: Human immunodeficiency virus 1
Description: Inhibition of HIV1 reverse transcriptase E89K mutant mediated single strand incorporation into DNA at +16 position using polypurine tract PPT+16/PPT57 template after 7 mins by gel based assay

Human immunodeficiency virus type 1 reverse transcriptase (Human immunodeficiency virus 1) (from UniProt Q72547) E89K
kcat/Km: 6000 M⁻¹ s⁻¹
